This assay addresses SARS-CoV-2 Spike trimer (recombinant, wild type) (SARS-CoV-2), P0DTC2. As to the kind of experiment: ELISA on plate-adsorbed recombinant Spike. The conditions noted are these: remark: other sources report otherwise. (In general: An ELISA detects its analyte on a solid surface through an enzyme-linked reagent.)

B1: 2-A6 (antibody, V domains shown)
VH: QVTLRESGPALVKPTQTLTLTCTFSGFSLNTRGMSVSWIRQPPGKALEWLALIDWEDDKFYRTSLMTRLTISKDIFKNQVVLTMTNVDPVDTGTYYCARTYSVGVKYFGMDVWGQGTTVTVSS
VL: SSELTQDPAVSVALGQTVRITCQGDSLRNYYASWYRQEPGQAPILLIYGGNYRPSGIPDRFSGSSSGNTASLTITGAQAEDEADYYCNSRDSSGNHVVFGGGTKLTVL
With B1, the concentration for a half-maximal effect (EC50 (read off the curve)) turned out to be 0.007 µg/mL.

B2: 22-E7 (antibody, V domains shown)
VH: QVQLVESGGGVVQPGTSLRLSCAASGFTFNNYPMFWVRQAPGKGLEWLALISYDGNHKVYADSVKGRFTISRDNAKNTLYLQMHSLRAEDTALYYCASDLSGAEDSWGQGTLVTVSS
VL: QSALTQPASVSGSPGQSITISCTGTSSDVGGYNYVSWYQQHPGKAPKLLIYEVSNRPSGVSNRFSGSKSGNTASLTISGLQAEDEADYYCSSYTSSSTWVFGGGTKLTVL
Consider B2, for which the EC50 (read off the curve) is 0.02 µg/mL.

B3: 22-F7 (antibody, V domains shown)
VH: QVQLVESGGGVVQPGRSLRLSCAASGFSFTNYGMHWVRQAPGKGLEWVAVISYDGSIKYYEDSLKGRFTVSRDNSKKTLYLQMNSLRAEDTAVYYCTRERGTGIDYWGLGTLVTVSS
VL: QSALTQPASVSGYPGQSITLSCTGTKSDIGAYNYVSWYQQHPGKAPKLMVYDVSNRPSGLSNRFSGSKSDNTASLTISGLQAEDEAHYYCSSYTTSGTVVFGGGTKVTVL
With B3, the EC50 (read off the curve) amounted to 0.01 µg/mL.

By EC50 (read off the curve) is commonly meant the concentration at which the effect is half-maximal.

For the origin of these results see patent publication US20230250158A1.
